We go through 5 molecules from US20260085127A1 (BRIGHTPATH BIOTHERAPEUTICS, published 2026).

“And” between values parts separate entries of the source, which are not always exact repeats. Identical values can stand only once. Like-named read-outs stand apart in the source and are kept apart here.

Assay [1] deals with T1, biotinylated human TIM-3-Fc antigen (in-house product, SEQ ID No: 118) (human, biotinylated). The assay can be described thus: competition ELISA: human Galectin-9 coated, biotinylated human TIM-3-Fc pre-mixed with the antibody dilution series, Streptavidin-HRP, A450; blocked ligand: human Galectin-9. Background: ELISA stands for enzyme-linked immunosorbent assay.
Assay [2] concerns the target T1, biotinylated human TIM-3-Fc antigen …. The description is as above. The source holds these as a separate data set.
The target is the same in assay [3]. The assay can be described thus: flow cytometry, inhibition of biotinylated TIM-3-Fc binding to phosphatidylserine on apoptotic Jurkat cells. For orientation: In flow cytometry, cells or beads pass a laser one at a time.
Assay [4] has the same target. The assay is described as above. This is another data set of the same source.
The target in assay [5] is T2, human CD39 (Accession No. NM_001776.6) expressed on cells (human, UniProt P49961 1-510).
T2 construct: whole, on cells; On Jurkat, 293T or SK-MEL28 cells; also called Jurkat/CD39; 293T/CD39
T2 sequence (looked up): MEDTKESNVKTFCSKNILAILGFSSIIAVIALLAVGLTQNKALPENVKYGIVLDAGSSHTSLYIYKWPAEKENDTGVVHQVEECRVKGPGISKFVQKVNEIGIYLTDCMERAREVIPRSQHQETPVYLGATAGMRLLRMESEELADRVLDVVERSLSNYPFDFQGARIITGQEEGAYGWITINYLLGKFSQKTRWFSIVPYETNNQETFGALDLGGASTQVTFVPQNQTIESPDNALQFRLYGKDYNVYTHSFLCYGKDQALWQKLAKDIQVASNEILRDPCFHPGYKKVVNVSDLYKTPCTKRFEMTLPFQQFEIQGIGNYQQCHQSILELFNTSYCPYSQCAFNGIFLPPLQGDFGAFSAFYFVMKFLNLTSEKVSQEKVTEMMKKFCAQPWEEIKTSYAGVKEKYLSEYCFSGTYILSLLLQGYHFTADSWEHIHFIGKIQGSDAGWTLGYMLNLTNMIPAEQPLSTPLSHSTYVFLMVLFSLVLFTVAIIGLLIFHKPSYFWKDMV
Nature of the assay: flow cytometry on a mix of Jurkat, Jurkat/TIM-3, Jurkat/CD39 and Jurkat/TIM-3+CD39 cells in one well, antibody at 0.1 nM, BV421-anti-hIgG, MFI of BV421 per cell group.

Assay [6] concerns the target T3, human TIM-3 (Accession No. JX049979.1) stably expressed on cells (human, UniProt Q8TDQ0 22-301).
T3 construct: whole, on cells; On Jurkat or 293T cells; also called Jurkat/TIM-3; 293T/TIM-3
Nature of the assay: flow cytometry, Jurkat/TIM-3 + CD39 cells, KD from MFI.

The target of assay [7] is T3, human TIM-3 (Accession No. JX049979.1) …. The assay can be described thus: flow cytometry, Jurkat/TIM-3 cells, KD from MFI.
Assay [8] shares this target. Nature of the assay: flow cytometry, 293T/TIM-3 + CD39 cells, KD from MFI.
In assay [9] the target is T1, biotinylated human TIM-3-Fc antigen …. The assay can be described thus: competition ELISA: human Galectin-9 coated, biotinylated human TIM-3-Fc pre-mixed with the antibody dilution series, Streptavidin-HRP, A450; blocked ligand: human Galectin-9. The source holds these as a separate data set.
For assay [10], the target named is T3, human TIM-3 (Accession No. JX049979.1) …. Nature of the assay: flow cytometry, 293T/TIM-3 cells, KD from MFI.
For assay [11] the target is unchanged. Nature of the assay: flow cytometry, 293T/TIM-3 cells, KD from MFI. The source holds these as a separate data set.
The target in assay [12] is T1, biotinylated human TIM-3-Fc antigen …. Nature of the assay: flow cytometry, inhibition of biotinylated TIM-3-Fc binding to phosphatidylserine on apoptotic Jurkat cells. The source holds these as a separate data set.
Assay [13] addresses T2, human CD39 (Accession No. NM_001776.6) …. Nature of the assay: flow cytometry, 293T/CD39 cells, KD from MFI.
In assay [14] the target is T4, recombinant human CD39 (in-house product, 38 to 478 aa of Accession No. NM_001776.6) (human, UniProt P49961 38-478).
T4 construct: also called rhCD39; human CD39-ECD; not shown: Myc and His tags at the C-terminus are named only for the PE-lab
T4 sequence (looked up): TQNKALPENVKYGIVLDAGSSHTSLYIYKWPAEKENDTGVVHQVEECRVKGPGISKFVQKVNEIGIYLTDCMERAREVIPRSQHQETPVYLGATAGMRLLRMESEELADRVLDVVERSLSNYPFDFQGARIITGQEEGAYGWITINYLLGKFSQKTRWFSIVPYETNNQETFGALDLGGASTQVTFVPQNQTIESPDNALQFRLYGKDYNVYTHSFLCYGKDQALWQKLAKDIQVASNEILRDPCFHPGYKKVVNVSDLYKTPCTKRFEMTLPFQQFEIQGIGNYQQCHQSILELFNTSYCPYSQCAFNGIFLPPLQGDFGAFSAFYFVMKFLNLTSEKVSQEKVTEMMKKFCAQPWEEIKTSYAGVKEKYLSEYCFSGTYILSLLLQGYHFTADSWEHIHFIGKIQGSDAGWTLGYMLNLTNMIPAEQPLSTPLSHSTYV
The assay can be described thus: SPR Biacore8K, antibody captured on anti-human IgG, antigen as analyte. A general note: SPR reads the build-up and loss of mass on a sensor chip optically.

Assay [15] deals with T3, human TIM-3 (Accession No. JX049979.1) …. The assay can be described thus: flow cytometry on a mix of Jurkat, Jurkat/TIM-3, Jurkat/CD39 and Jurkat/TIM-3+CD39 cells in one well, antibody at 1 nM, BV421-anti-hIgG, MFI of BV421 per cell group.
The target in assay [16] is T2, human CD39 (Accession No. NM_001776.6) …. The assay can be described thus: flow cytometry, 293T/CD39 cells, KD from MFI. This is another data set of the same source.
Assay [17] shares this target. The assay can be described thus: flow cytometry, 293T/TIM-3 + CD39 cells, KD from MFI.
For assay [18] the target is unchanged. Nature of the assay: flow cytometry on a mix of Jurkat, Jurkat/TIM-3, Jurkat/CD39 and Jurkat/TIM-3+CD39 cells in one well, antibody at 1 nM, BV421-anti-hIgG, MFI of BV421 per cell group.

B1: Hu003_13_F20_sc (antibody)
scFv: QVQLQESGGGLVKPGGSLKLSCAASGFTFSSYYMSWVRQTPDKRLEWVATISNSGGSTYYPDSVKDRFTISRDNAKNTLYLQMSSLKSEDTAMYYCARDPYYTNYVPMDYWGQGTMVTVSSGGGGSGGGGSGGGGSGGGGSDIVMTQSPSFLSASVGDRVTITCKASQYVDTYVAWYQQRPGKAPKPLIYSASTRHTGVPSRFSGSGSGTEFTLTISSLQPEDFATYFCAQYSSSPLTFGGGTKLELK
notes: scFv-Fc homodimer, anti-TIM-3; also called scFv-Fc homodimeric antibody of anti-TIM-3_scFv antibody (humanized) Hu003_13_F20; not shown: GGGG linker and Fc-LALA (IgG1 Fc with L234A and L235A)
In the case of B1, the “IC50 (read off the curve)” value in assay [1] is ~0.5 nM and ~0.3 nM; in assay [2], ~1 nM; in assay [9] it was ~0.5 nM and ~1 nM. In addition, the concentration for half-maximal inhibition (IC50) in assay [3] was 16.7 nM and 6.66 nM and 8.42 nM; in [4], 8.56 nM and 8.62 nM. In assay [5], the binding result is on record as “no binding (tested: 0.1 nM)”. Moreover, the equilibrium dissociation constant (Kd) in assay [6] was 0.339 nM; in assay [7] it was 0.274 nM; in [8], 3.86 nM; in [10], 2.72 nM.

B2: I67_Hu003_Fsc (bispecific antibody, not shown: a dimerising Fc or GST)
VH: DVQLQESGPSLVQPSQSLSINCTVSGFSLSSYGVHWVRQSPGKGLEWLGVIWRRGSTDYNAAFMSRLSITKDNSKSQVFFKMNRLQADDTATYYCAKGISTATSWFAYWGQGTLVTVSA
VL: DIVMTQSHKFMSTSVGDRVSVTCKASQNVGTNVAWYQQKPGQSPKALIYSASYRYSGVPDRFTGSGSGTDFTLTISNVQSEDLAEYFCQQYNSYPLTFGAGTKLELK
scFv: QVQLQESGGGLVKPGGSLKLSCAASGFTFSSYYMSWVRQTPDKRLEWVATISNSGGSTYYPDSVKDRFTISRDNAKNTLYLQMSSLKSEDTAMYYCARDPYYTNYVPMDYWGQGTMVTVSSGGGGSGGGGSGGGGSGGGGSDIVMTQSPSFLSASVGDRVTITCKASQYVDTYVAWYQQRPGKAPKPLIYSASTRHTGVPSRFSGSGSGTEFTLTISSLQPEDFATYFCAQYSSSPLTFGGGTKLELK
notes: Fab-scFv-Fc heterodimer: anti-CD39 Fab I67 (Knob)
For the molecule B2, in assay [11], the Kd was found to be 4.78 nM. In [12], the 50% inhibitory concentration (IC50) was determined as 25.2 nM.

B3: HuP4_IB_Hu003 (bispecific antibody)
chain 1: QVQLLESGPELVKPSATLSITCTVSGFSLTNYGVHWIRQAPGKGLEWLGVILRRGSTDYNAAFMSRFTISKDNSKNQVYFKLRSVTAEDTAVVAGDYFDYWGQGTMVTVSSGGGGSGGGGSGGGGSGGGGSDIQMTQSHSTLSLSVGDRVTITCKASQNVGTNVAWYQQKPGQPPKALIYSASYRYSGVPSRFSGSGSGTDFTLTISSVQAEDVAVYYCQQYNSYPLTFGPGTKLEIK
chain 2: QVQLQESGGGLVKPGGSLKLSCAASGFTFSSYYMSWVRQTPDKRLEWVATISNSGGSTYYPDSVKDRFTISRDNAKNTLYLQMSSLKSEDTAMYYCARDPYYTNYVPMDYWGQGTMVTVSSGGGGSGGGGSGGGGSGGGGSDIVMTQSPSFLSASVGDRVTITCKASQYVDTYVAWYQQRPGKAPKPLIYSASTRHTGVPSRFSGSGSGTEFTLTISSLQPEDFATYFCAQYSSSPLTFGGGTKLELK
For B3, the “IC50 (read off the curve)” value in assay [1] was ~3 nM. Besides, the Kd in [11] was found to be 8.66 nM; in assay [13], 11.4 nM; in assay [14], 0.334 nM. In assay [4], this molecule had a half-maximal inhibitory concentration (IC50) of 16.5 nM.

B4: 6-3hIG_LA (antibody, V domains shown)
VH: QVQLVQSGAELVKPGASVKLSCKASGFSIKDTYVHWVKQAPGKGLEWIGKIDPANVNTKFDPKFQGRVTITADTSTNTAYLQLSSLRSEDTAVYYCALYGYDDDAYYFDYWGQGTLVTVSS
VL: EIVLTQSPASLSVSPGERATISCRASESVDNYGISFMNWFQQKPGQAPKLLIYAASNQGSGVPARFSGSGSGTDFTLTISSLEPEDFAVYYCQQSKEVPYTFGQGTKLEIK
notes: IgG1LALA homodimeric antibody; also called IgG1LALA homodimeric antibody of anti-CD39 antibody (humanized) 6-3hIG
Turning to B4, the binding result in [15] is “no binding (tested: 1 nM)”. Further, in assay [14], the Kd was 0.629 nM, the koff was 0.000193 s⁻¹ and the kon worked out at 307000 M⁻¹ s⁻¹. Further, in assay [16], the affinity, expressed as Kd, was 7.04 nM. The Kd in assay [17] is 16.8 nM.

B5: Hu003_13_F20_LA (antibody, V domains shown)
VH: QVQLQESGGGLVKPGGSLKLSCAASGFTFSSYYMSWVRQTPDKRLEWVATISNSGGSTYYPDSVKDRFTISRDNAKNTLYLQMSSLKSEDTAMYYCARDPYYTNYVPMDYWGQGTMVTVSS
VL: DIVMTQSPSFLSASVGDRVTITCKASQYVDTYVAWYQQRPGKAPKPLIYSASTRHTGVPSRFSGSGSGTEFTLTISSLQPEDFATYFCAQYSSSPLTFGGGTKLELK
notes: IgG1LALA homodimeric antibody (IgG1 with L234A and L235A); also called Hu003_LA; Hu003-LA
Regarding B5, in assay [18], the binding result is “no binding (tested: 1 nM)”. Also, in assay [12], the half-inhibitory concentration (IC50) is 8.93 nM and 7.11 nM and 8.51 nM and 12.3 nM.

Broadly, the IC50 is the point on the concentration scale where inhibition reaches its midpoint. As usually defined, the Kd is the equilibrium constant for the complex coming apart. For orientation: koff means a measure of how fast the partners let go of each other. The kon is the second-order rate constant of association.
